From US20200225235A1

Molecular target: anti-GASP-1 polyclonal antibody raised against a GASP-1 fragment consisting of … (SEQ ID NO: 2)
Test: competitive ELISA: free peptide against plate-bound BSA-GASP-1 conjugate for the biotinylated antibody

difference in OD values between zero and 0.3 ng/ml competing peptide: 1.1 OD (450 nm)
Binder: EEASPEAVAGVGFESK [GASP-1 peptide … (SEQ ID NO: 2)]
